Laboratory results published in patent US20080267882A1, “Imaging compounds, methods of making imaging compounds, methods of imaging, therapeutic compounds, methods of making therapeutic compounds, and methods of therapy” (Stanford University, priority 2007, published 2008).
Where two headings read alike, the source gives them in different places.

How the values were obtained:
U87MG cells = test: cell adhesion assay on vitronectin coated plates; assay type: cell-based, human; conditions: for IC50: n=4, read-out: calculated IC50 (inhibition of U87MG cell adhesion)
Experimental: Ninety-six well plates were coated with 2 μg/mL of fibronectin or vitronectin (Sigma-Aldrich) in PBS at 4° C. overnight and treated with 2% bovine serum albumin (BSA) for 1 h at 37° C. U87MG cells (human glioblastoma, ATCC; 2×10^5 cells/mL) with various concentrations of RGD multimers (50 nM, 200 nM, 800 nM) in 100 μL serum-free Dulbecco's modified Eagle's medium (DMEM) containing 0.1% BSA were incubated for 20 min at 37° C. The resulting mixture was added to the plates and incubated for 1 h at 37° C. Plates treated with BSA only were used as negative control. After removal of the medium by aspiration, 0.04% crystal violet solution was added and incubated for 10 min at room temperature. The wells were washed three times with PBS and 20 μL Triton X-100 were added for permeabilization. Distilled water (80 μL) was then added and the number of adherent cells was assessed with a microplate reader (Tecan; measurement wavelength: 550 nm; reference wavelength: 630 nm).

[1] = biodistribution of ^3H-PTX and ^3H-RGD2−PTX in MDA-MB-435 tumor-bearing mice; assay type: in vivo, mouse; conditions: female, athymic nude (nu/nu), mouse, iv, 2.9 umol/kg, total radioactivity
Experimental: (§1) All animal experiments were performed in compliance with the guidelines for the care and use of research animals established by the Stanford University's Animal Studies Committee. Female athymic nude mice (nu/nu) were obtained from Harlan (Indianapolis, Ind.) at 6-8 weeks of age and were kept under sterile conditions. The MDA-MB-435 cells were harvested and suspended in sterile PBS at a concentration of 5×10^7 cells/mL. Viable cells (5×10^6) in PBS (100 μL) were injected orthotopically in the right mammary fat pad. […] Tumor growth was followed by caliper measurements of perpendicular measures of the tumor. The tumor volume was estimated by the formula: tumor volume=a×(b^2)/2, where a and b are the tumor length and width respectively in mm.
(§2) The animals were euthanized at 4, 24 and 48 h post injection and major organs and tissues were collected correspondingly. Approximately 100 mg of the tissue was added to glass scintillation vials containing 1 mL of tissue solubilizer SoluEne®-350 (Perkin-Elmer, Waltham, Mass.). These samples were digested at 55° C. for overnight followed by bleaching to obtain the decolorized samples. Chemiluminescence was reduced by the addition of glacial acetic acid. Hionic-Fluor liquid scintillation cocktail (Perkin-Elmer) was added to all samples, which were then counted with a Tri-Carb 2800TR liquid scintillation Analyzer (Perkin-Elmer).

[2] = test system: MDA-MB-435 tumor-bearing mice; test: as above; assay type: in vivo, mouse
Experimental: as §1, §2

integrin αvβ3 = biological target: T1, integrin αvβ3 (Homo sapiens, UniProt P05106+P06756); test: competitive cell binding assay using ^125I-echistatin on U87MG cells
T1 construct: evaluated using U87MG cells (integrin αvβ3-positive); endogenous in cells; host or cells: U87MG human glioblastoma cells (ATCC)
Experimental: Experiments were performed on U87MG human glioblastoma cells with triplicate samples as previously reported.
In vitro integrin αvβ3-binding affinities and specificities of RGD4, PRGD4 and FPRGD4 were assessed via displacement cell binding assays using ^125I-echistatin as the integrin αvβ3-specific radioligand. Experiments were performed on U87MG human glioblastoma cells by the method previously described (J Nucl Med. 2005;46:1707-1718 J Nucl Med. 2006;47:1172-1180, which is incorporated herein by reference for the corresponding discussion). […] Experiments were performed with triplicate samples.
Experiments were performed with triplicate samples.
In vitro integrin-binding affinity and specificity of RGD multimers and DOTA-RGD multimers were assessed via competitive cell binding assays using ^125I-echistatin as the integrin αvβ3-specific radioligand (J Nucl Med. 2005;46:1707-1718, which is incorporated herein by reference for the corresponding discussion). […] Experiments were performed with triplicate samples.

[3] = tumor/kidney, read-out: tumor/kidney ratio
[4] = tumor/liver, read-out: tumor/liver ratio
[5] = tumor/muscle, read-out: tumor/muscle ratio
[6] = IC50 of RGD monomer divided by IC50 of RGD multimer

## N=C(N)NCCC[C@@H]1NC(=O)[C@H](CCCCNC(=O)CC[C@H](N)C(=O)NCCCC[C@@H]2NC(=O)[C@@H](Cc3ccc(O)cc3)NC(=O)[C@H](CC(=O)O)NC(=O)CNC(=O)[C@H](CCCNC(=N)N)NC2=O)NC(=O)[C@@H](Cc2ccc(O)cc2)NC(=O)[C@H](CC(=O)O)NC(=O)CNC1=O [RGD2, E[c(RGDyK)]2, reference compound]
U87MG cells; vitronectin coated plates
  IC50: 700 nM

## CC(=O)O[C@H]1C(=O)[C@@]2(C)[C@H]([C@H](OC(=O)c3ccccc3)[C@]3(O)C[C@H](OC(=O)[C@H](OC(=O)CCC(=O)N[C@@H](CCC(=O)NCCCC[C@@H]4NC(=O)[C@@H](Cc5ccc(O)cc5)NC(=O)[C@H](CC(=O)O)NC(=O)CNC(=O)[C@H](CCCNC(=N)N)NC4=O)C(=O)NCCCC[C@@H]4NC(=O)[C@@H](Cc5ccc(O)cc5)NC(=O)[C@H](CC(=O)O)NC(=O)CNC(=O)[C@H](CCCNC(=N)N)NC4=O)[C@@H](NC(=O)c4ccccc4)c4ccccc4)C(C)=C1C3(C)C)[C@]1(OC(C)=O)CO[C@@H]1C[C@@H]2O [^3H-RGD2−PTX]
[1]; [3]
  tissue to tissue ratio at 4 h: 0.25
  tissue to tissue ratio at 24 h: 0.68
  tissue to tissue ratio at 48 h: 0.53
[1]; [4]
  tissue to tissue ratio at 4 h: 0.29
  tissue to tissue ratio at 24 h: 0.45
  tissue to tissue ratio at 48 h: 0.27
[1]; [5]
  tissue to tissue ratio at 4 h: 2.86
  tissue to tissue ratio at 24 h: 2.82
  tissue to tissue ratio at 48 h: 1.74
[2]; 4 h
  tissue concentration, Blood: 101.7 ± 30.8 ng/g
  tissue concentration, Heart: 228.7 ± 29.8 ng/g
  tissue concentration, Intestine: 127.8 ± 20.3 ng/g
  tissue concentration, Kidney: 1421.6 ± 289.8 ng/g
  tissue concentration, Liver: 1252.9 ± 109.9 ng/g
  tissue concentration, Lung: 300.4 ± 30.9 ng/g
  tissue concentration, MDA-MB-435 tumor: 357.5 ± 62.62 ng/g
  tissue concentration, Muscle: 125.1 ± 24.0 ng/g
  tissue concentration, Skin: 144.1 ± 15.9 ng/g
  tissue concentration, Spleen: 322.3 ± 59.3 ng/g
  tissue concentration, Stomach: 119.0 ± 16.7 ng/g
  tumor/muscle ratio: 2.86
[2]; 4 h, listed as 3H-RGD2-PTX
  tissue concentration, Liver: 1252.9 ± 109.9 ng/g
  tissue concentration, MDA-MB-435 tumor: 357.5 ± 62.6 ng/g
[2]; 24 h
  tissue concentration, Blood: 143.1 ± 18.0 ng/g
  tissue concentration, Heart: 170.7 ± 18.6 ng/g
  tissue concentration, Intestine: 52.1 ± 7.5 ng/g
  tissue concentration, Kidney: 338.9 ± 22.1 ng/g
  tissue concentration, Liver: 510.4 ± 28.9 ng/g
  tissue concentration, Lung: 238.6 ± 75.6 ng/g
  tissue concentration, MDA-MB-435 tumor: 229.4 ± 50.4 ng/g
  tissue concentration, Muscle: 81.2 ± 11.4 ng/g
  tissue concentration, Skin: 87.2 ± 16.1 ng/g
  tissue concentration, Spleen: 228.7 ± 39.4 ng/g
  tissue concentration, Stomach: 71.63 ± 9.5 ng/g
  tumor/muscle ratio: 2.82
[2]; 24 h, listed as 3H-RGD2-PTX
  tissue concentration, MDA-MB-435 tumor: 229.4 ± 50.4 ng/g
[2]; 48 h
  tissue concentration, Blood: 225.4 ± 12.8 ng/g
  tissue concentration, Heart: 222.5 ± 16.2 ng/g
  tissue concentration, Intestine: 50.8 ± 9.5 ng/g
  tissue concentration, Kidney: 281.8 ± 32.6 ng/g
  tissue concentration, Liver: 545.3 ± 30.6 ng/g
  tissue concentration, Lung: 207.8 ± 48.2 ng/g
  tissue concentration, MDA-MB-435 tumor: 148.8 ± 40.2 ng/g
  tissue concentration, Muscle: 85.6 ± 28.0 ng/g
  tissue concentration, Skin: 66.0 ± 9.1 ng/g
  tissue concentration, Spleen: 227.9 ± 28.2 ng/g
  tissue concentration, Stomach: 71.7 ± 12.2 ng/g
  tumor/muscle ratio: 1.74
[2]; 48 h, listed as 3H-RGD2-PTX
  tissue concentration, MDA-MB-435 tumor: 148.8 ± 40.2 ng/g

## N=C(N)NCCC[C@@H]1NC(=O)[C@H](CCCCNC(=O)CC[C@H](NC(=O)CC[C@H](NC(=O)CC[C@H](N)C(=O)N[C@@H](CCC(=O)N[C@@H](CCC(=O)NCCCC[C@@H]2NC(=O)[C@@H](Cc3ccc(O)cc3)NC(=O)[C@H](CC(=O)O)NC(=O)CNC(=O)[C@H](CCCNC(=N)N)NC2=O)C(=O)NCCCC[C@@H]2NC(=O)[C@@H](Cc3ccc(O)cc3)NC(=O)[C@H](CC(=O)O)NC(=O)CNC(=O)[C@H](CCCNC(=N)N)NC2=O)C(=O)N[C@@H](CCC(=O)NCCCC[C@@H]2NC(=O)[C@@H](Cc3ccc(O)cc3)NC(=O)[C@H](CC(=O)O)NC(=O)CNC(=O)[C@H](CCCNC(=N)N)NC2=O)C(=O)NCCCC[C@@H]2NC(=O)[C@@H](Cc3ccc(O)cc3)NC(=O)[C@H](CC(=O)O)NC(=O)CNC(=O)[C@H](CCCNC(=N)N)NC2=O)C(=O)N[C@@H](CCC(=O)NCCCC[C@@H]2NC(=O)[C@@H](Cc3ccc(O)cc3)NC(=O)[C@H](CC(=O)O)NC(=O)CNC(=O)[C@H](CCCNC(=N)N)NC2=O)C(=O)NCCCC[C@@H]2NC(=O)[C@@H](Cc3ccc(O)cc3)NC(=O)[C@H](CC(=O)O)NC(=O)CNC(=O)[C@H](CCCNC(=N)N)NC2=O)C(=O)NCCCC[C@@H]2NC(=O)[C@@H](Cc3ccc(O)cc3)NC(=O)[C@H](CC(=O)O)NC(=O)CNC(=O)[C@H](CCCNC(=N)N)NC2=O)NC(=O)[C@@H](Cc2ccc(O)cc2)NC(=O)[C@H](CC(=O)O)NC(=O)CNC1=O [RGD octamer, E(E{E[c(RGDyK)]2}2)2]
Integrin αvβ3; Example 4
  further fold increase of integrin avidity over RGD tetramer: 3 fold
Integrin αvβ3; Example 4, introduction, read-out: IC50 value (αvβ3 integrin binding)
  IC50: 10 nM
Integrin αvβ3; Example 4, n=3, read-out: IC50 (inhibition of ^125I-echistatin binding to U87MG cells)
  IC50: 10 nM
Integrin αvβ3; [6]
  receptor binding multivalent enhancement ratio (MVE): 20.3
U87MG cells; [6]
  anti-adhesion multivalent enhancement ratio (MVE): 25.6
U87MG cells; vitronectin coated plates
  times as effective as the RGD monomer: 27 times
